Test [1] has as its target T1, B lymphocyte stimulator protein (BLyS) (UniProt Q9Y275 134-285, biotinylated (b-BLyS) in phage screening and phage ELISA; unlabeled in fluorescence anisotropy and column tests).
T1 construct: also called b-BLyS; biotinylated recombinant BLyS
The test can be described thus: phage ELISA on biotinylated BLyS.

The target of test [2] is T1, B lymphocyte stimulator protein (BLyS). The test can be described thus: not stated at this place (fluorescence anisotropy elsewhere); reference in indirect phage ELISA. In general terms: Polarisation of emitted light reports the rotation of a fluorescent probe.
For test [3] the target is unchanged. The test can be described thus: fluorescence anisotropy.
The target is the same in test [4]. The experiment in a line: fluorescence anisotropy. The source holds these as a separate data set.

Primed or numbered codes have the meaning given here. No end group written: not given here. FITC′ = fluorescein label (fitc)

For orientation: Kd means the equilibrium constant for the complex coming apart. Higher therefore signals weaker binding.

T1 sequence (Q9Y275 134-285 limits assumed): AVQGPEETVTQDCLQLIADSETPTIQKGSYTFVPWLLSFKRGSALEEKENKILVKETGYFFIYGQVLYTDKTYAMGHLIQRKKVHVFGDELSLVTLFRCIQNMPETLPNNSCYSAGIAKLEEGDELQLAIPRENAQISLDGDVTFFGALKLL

As for VPFCDLLTKHCFEA (also called TN8-01-B07) [453-01-B07], in test [1], the ELISA signal is 1.4 OD630. In test [2], this molecule showed a Kd of 700 nM.

GYDVLTKLYFVP (also called PhD-02-C12) [453-02-C12] displayed an ELISA signal in test [1] of 0.8 OD630.

With AMKCYFPWECANG (also called TN7-01-D11) [453-01-D11], the ELISA signal in test [1] was found to be 1 OD630.

In test [3], Ac-WYDPLTKLWLGGK(FITC′) (synthetic) [DX876] registered a Kd of 171 nM.

Turning to Ac-WTDSLTGLWFPDGGPGPEGGGK (also: fluorescein-labeled, site not given here, synthetic) [DX221], the Kd in test [4] stood at 3000 nM.

Molecule KEPCYFYWECAVS (also called TN7-01-A08) [453-01-A08] registered an ELISA signal in test [1] of 1.2 OD630.

The molecule HVDCLLHPKACYKY (also called TN8-01-C08) [453-01-C08] registered an ELISA signal in test [1] of 1.2 OD630.

Molecule YFDQLTHLSIKK (also called PhD-02-D05) [453-02-D05] yielded an ELISA signal in test [1] of 0.8 OD630.

Take GIYDKLTRAWLP (also called PhD-02-B02) [453-02-B02]: the ELISA signal in test [1] stood at 0.6 OD630.

As to KSKCFFPWECQQA (also called TN7-01-B04) [453-01-B04], the ELISA signal in test [1] was 0.8 OD630.

In test [1], GGNCYTDSLTKLHFCMGD (also called TN12-01-H05) [453-01-H05] came in with an ELISA signal of 1 OD630.

Turning to SRLCHMDELTHVCVHF (also called TN10-01-F05) [453-01-F05], the ELISA signal in test [1] amounted to 1 OD630.

For FHPCDMLTGIWCQPN (also called TN9-01-G06) [453-01-G06], in test [1], the ELISA signal turned out to be 1.2 OD630.

As to LNACDIVHPNYCSGM (also called TN9-01-011) [453-01-G11], the ELISA signal in test [1] is 0.8 OD630.

In turn, WTDSLTGLWFPD (also called PhD-02-C04) [453-02-C04] displayed an ELISA signal in test [1] of 1 OD630.

With VHYDSLTKMWTR (also called PhD-02-B05) [453-02-B05], in test [1], the ELISA signal turned out to be 0.6 OD630.

The values above are taken from patent US20030194743A1 (DYAX, published 2003).
